# Test results taken from patent US20240117018A1.
# Assays:
# Test in all cases: cell-based or functional assay
# [1] = target: Env of HIV-1 pseudovirus 0260.v5.c36 (HIV-1)
# [2] = target: Env of HIV-1 pseudovirus AC10.0.29 (HIV-1)
# [3] = target: Env of HIV-1 pseudovirus Ce1176_A3 (HIV-1)
# [4] = target: Env of HIV-1 pseudovirus Ce703010054_2A2 (HIV-1)
# [5] = target: Env of HIV-1 pseudovirus Du172.17 (HIV-1)
# [6] = target: Env of HIV-1 pseudovirus Q259.d2.17 (HIV-1)
# [7] = target: Env of HIV-1 pseudovirus Q461.e2 (HIV-1)
# [8] = target: Env of HIV-1 pseudovirus REJO4541.67 (HIV-1)
# [9] = target: Env of HIV-1 pseudovirus SC05_8C11_2344 (HIV-1)
# [10] = target: Env of HIV-1 pseudovirus SC422661.8 (HIV-1)
# [11] = target: Env of HIV-1 pseudovirus THRO4156.18 (HIV-1)
# [12] = target: Env of HIV-1 pseudovirus ZM233M.PB6 (HIV-1)
# [13] = target: HIV-1 Env pseudovirus 1054_07_TC4_1499 (HIV-1)
# [14] = target: HIV-1 Env pseudovirus 6535.3 (HIV-1)
# [15] = target: HIV-1 Env pseudovirus BF1266.431a (HIV-1)
# [16] = target: HIV-1 Env pseudovirus CAP210.2.00.E8 (HIV-1)
# [17] = target: HIV-1 Env pseudovirus CNE21 (HIV-1)
# [18] = target: HIV-1 Env pseudovirus CNE30 (HIV-1)
# [19] = target: HIV-1 Env pseudovirus Ce0393_C3 (HIV-1)
# [20] = target: HIV-1 Env pseudovirus Du172.17 (HIV-1)
# [21] = target: HIV-1 Env pseudovirus MS208.A1 (HIV-1)
# [22] = target: HIV-1 Env pseudovirus PVO.4 (HIV-1)
# [23] = target: HIV-1 Env pseudovirus Q461.e2 (HIV-1)
# [24] = target: HIV-1 Env pseudovirus RHPA4259.7 (HIV-1)
# [25] = target: HIV-1 Env pseudovirus TRJO4551.58 (HIV-1)
# [26] = target: HIV-1 Env pseudovirus ZM53M.PB12 (HIV-1)
substance,measurement,setting,value
10E8 (antibody),IC50,[1],> 10 µg/mL
same,IC80,[1],> 10 µg/mL
same,IC50,[2],0.132 µg/mL
same,IC80,[2],1.53 µg/mL
same,IC50,[3],0.867 µg/mL
same,IC80,[3],3.92 µg/mL
same,IC50,[4],2.3 µg/mL
same,IC80,[4],8.58 µg/mL
same,IC50,[5],0.109 µg/mL
same,IC80,[5],0.837 µg/mL
same,IC50,[6],4.59 µg/mL
same,IC80,[6],> 10 µg/mL
same,IC50,[7],2.11 µg/mL
same,IC80,[7],> 10 µg/mL
same,IC50,[8],0.203 µg/mL
same,IC80,[8],1.69 µg/mL
same,IC50,[9],0.665 µg/mL
same,IC80,[9],2.74 µg/mL
same,IC50,[10],0.445 µg/mL
same,IC80,[10],2.71 µg/mL
same,IC50,[11],0.156 µg/mL
same,IC80,[11],0.884 µg/mL
same,IC50,[12],0.442 µg/mL
same,IC80,[12],2.39 µg/mL
N49P11 (antibody),IC50,[13],2.92 µg/mL
same,IC80,[13],13.1 µg/mL
same,MPI,[13],100
same,IC50,[14],8.22 µg/mL
same,IC80,[14],17.2 µg/mL
same,MPI,[14],100
same,IC50,[15],0.998 µg/mL
same,IC80,[15],7.13 µg/mL
same,MPI,[15],100
same,IC50,[16],5.12 µg/mL
same,IC80,[16],19.4 µg/mL
same,MPI,[16],100
same,IC50,[17],7.4 µg/mL
same,IC80,[17],21.9 µg/mL
same,MPI,[17],100
same,IC50,[18],0.889 µg/mL
same,IC80,[18],4.45 µg/mL
same,MPI,[18],100
same,IC50,[19],1.51 µg/mL
same,IC80,[19],9.71 µg/mL
same,MPI,[19],100
same,IC50,[20],5.65 µg/mL
same,IC80,[20],17.9 µg/mL
same,MPI,[20],100
same,IC50,[21],0.259 µg/mL
same,IC80,[21],1.94 µg/mL
same,MPI,[21],100
same,IC50,[22],0.248 µg/mL
same,IC80,[22],1.17 µg/mL
same,MPI,[22],100
same,IC50,[23],0.363 µg/mL
same,IC80,[23],2.15 µg/mL
same,MPI,[23],100
same,IC50,[24],0.202 µg/mL
same,IC80,[24],0.956 µg/mL
same,MPI,[24],100
same,IC50,[25],0.183 µg/mL
same,IC80,[25],0.656 µg/mL
same,MPI,[25],100
same,IC50,[26],1.05 µg/mL
same,IC80,[26],6.53 µg/mL
same,MPI,[26],100
10-1074 (antibody),IC50,[1],0.099 µg/mL
same,IC80,[1],0.16 µg/mL
same,IC50,[2],0.022 µg/mL
same,IC80,[2],0.11 µg/mL
same,IC50,[3],0.019 µg/mL
same,IC80,[3],0.07 µg/mL
same,IC50,[4],> 50 µg/mL
same,IC80,[4],> 50 µg/mL
same,IC50,[5],0.121 µg/mL
same,IC80,[5],0.43 µg/mL
same,IC50,[6],> 50 µg/mL
same,IC80,[6],> 50 µg/mL
same,IC50,[7],> 50 µg/mL
same,IC80,[7],> 50 µg/mL
same,IC50,[8],> 50 µg/mL
same,IC80,[8],> 50 µg/mL
same,IC50,[9],0.052 µg/mL
same,IC80,[9],0.123 µg/mL
same,IC50,[10],0.091 µg/mL
same,IC80,[10],0.418 µg/mL
same,IC50,[11],> 50 µg/mL
same,IC80,[11],> 50 µg/mL
same,IC50,[12],0.06 µg/mL
same,IC80,[12],0.349 µg/mL
PG16 (antibody),IC50,[1],1.54 µg/mL
same,IC80,[1],36.1 µg/mL
same,IC50,[2],0.023 µg/mL
same,IC80,[2],0.417 µg/mL
same,IC50,[3],0.003 µg/mL
same,IC80,[3],0.011 µg/mL
same,IC50,[4],0.008 µg/mL
same,IC80,[4],0.053 µg/mL
same,IC50,[5],0.033 µg/mL
same,IC80,[5],0.213 µg/mL
same,IC50,[6],0.065 µg/mL
same,IC80,[6],45.9 µg/mL
same,IC50,[7],1.75 µg/mL
same,IC80,[7],> 50 µg/mL
same,IC50,[8],0.039 µg/mL
same,IC80,[8],13.4 µg/mL
same,IC50,[9],0.07 µg/mL
same,IC80,[9],1.62 µg/mL
same,IC50,[10],0.858 µg/mL
same,IC80,[10],> 50 µg/mL
same,IC50,[11],6.83 µg/mL
same,IC80,[11],> 50 µg/mL
same,IC50,[12],0.002 µg/mL
same,IC80,[12],0.006 µg/mL
PG9 (antibody),IC50,[1],1.69 µg/mL
same,IC80,[1],9 µg/mL
same,IC50,[2],0.117 µg/mL
same,IC80,[2],0.845 µg/mL
same,IC50,[3],0.014 µg/mL
same,IC80,[3],0.044 µg/mL
same,IC50,[4],0.022 µg/mL
same,IC80,[4],0.103 µg/mL
same,IC50,[5],0.606 µg/mL
same,IC80,[5],1.6 µg/mL
same,IC50,[6],0.029 µg/mL
same,IC80,[6],1.38 µg/mL
same,IC50,[7],1.48 µg/mL
same,IC80,[7],8.72 µg/mL
same,IC50,[8],0.012 µg/mL
same,IC80,[8],0.163 µg/mL
same,IC50,[9],0.892 µg/mL
same,IC80,[9],4.28 µg/mL
same,IC50,[10],0.553 µg/mL
same,IC80,[10],7.05 µg/mL
same,IC50,[11],24.5 µg/mL
same,IC80,[11],> 50 µg/mL
same,IC50,[12],0.01 µg/mL
same,IC80,[12],0.026 µg/mL
N49P7.2 (antibody),IC50,[13],2.04 µg/mL
same,IC80,[13],10.7 µg/mL
same,MPI,[13],99
same,IC50,[14],0.152 µg/mL
same,IC80,[14],0.784 µg/mL
same,MPI,[14],100
same,IC50,[15],0.029 µg/mL
same,IC80,[15],0.159 µg/mL
same,MPI,[15],100
same,IC50,[16],3.94 µg/mL
same,IC80,[16],21.7 µg/mL
same,MPI,[16],95
same,IC50,[17],48.3 µg/mL
same,IC80,[17],> 50 µg/mL
same,MPI,[17],51
same,IC50,[18],0.362 µg/mL
same,IC80,[18],1.2 µg/mL
same,MPI,[18],100
same,IC50,[19],0.137 µg/mL
same,IC80,[19],0.368 µg/mL
same,MPI,[19],100
same,IC50,[20],0.29 µg/mL
same,IC80,[20],1.08 µg/mL
same,MPI,[20],100
same,IC50,[21],0.186 µg/mL
same,IC80,[21],0.966 µg/mL
same,MPI,[21],100
same,IC50,[22],0.237 µg/mL
same,IC80,[22],0.831 µg/mL
same,MPI,[22],100
same,IC50,[23],0.472 µg/mL
same,IC80,[23],2.24 µg/mL
same,MPI,[23],100
same,IC50,[24],0.1 µg/mL
same,IC80,[24],0.289 µg/mL
same,MPI,[24],100
same,IC50,[25],0.21 µg/mL
same,IC80,[25],0.673 µg/mL
same,MPI,[25],100
same,IC50,[26],0.477 µg/mL
same,IC80,[26],1.73 µg/mL
same,MPI,[26],100
N49P18.1 (antibody),IC50,[13],> 50 µg/mL
same,IC80,[13],> 50 µg/mL
same,MPI,[13],0
same,IC50,[14],2.06 µg/mL
same,IC80,[14],11.4 µg/mL
same,MPI,[14],100
same,IC50,[15],3.48 µg/mL
same,IC80,[15],20.8 µg/mL
same,MPI,[15],93
same,IC50,[16],> 50 µg/mL
same,IC80,[16],> 50 µg/mL
same,MPI,[16],11
same,IC50,[17],7.93 µg/mL
same,IC80,[17],29.2 µg/mL
same,MPI,[17],95
same,IC50,[18],13.1 µg/mL
same,IC80,[18],32.2 µg/mL
same,MPI,[18],93
same,IC50,[19],10.3 µg/mL
same,IC80,[19],24.8 µg/mL
same,MPI,[19],92
same,IC50,[20],6.52 µg/mL
same,IC80,[20],21.3 µg/mL
same,MPI,[20],92
same,IC50,[21],8.31 µg/mL
same,IC80,[21],33.3 µg/mL
same,MPI,[21],88
same,IC50,[22],9.65 µg/mL
same,IC80,[22],40.2 µg/mL
same,MPI,[22],84
same,IC50,[23],24.7 µg/mL
same,IC80,[23],> 50 µg/mL
same,MPI,[23],68
same,IC50,[24],4.34 µg/mL
same,IC80,[24],21.4 µg/mL
same,MPI,[24],98
same,IC50,[25],4.44 µg/mL
same,IC80,[25],14.7 µg/mL
same,MPI,[25],99
same,IC50,[26],1.3 µg/mL
same,IC80,[26],4.51 µg/mL
same,MPI,[26],99
